Assay results taken from patent publication US20240026407A1, “MODIFICATION OF SAPONINS” (GLAXOSMITHKLINE BIOLOGICALS SA, priority 2020, published 2024).
Values belong to the molecule of their own block, whether it stands above or below them.

Legend:
[1] = Example 10: deglucosylation of saponins in crude bark extract (50%) using WT and engineered glucosidases G1 to G5; assay type: biochemical, Quillaja saponaria; conditions: 50% CBE, 35 degC; for % Right Peak: starting CBE 26; for % Left Peak: starting CBE 30; for % Middle Peak: starting CBE 44
Experimental: Lyophilised powders from clarified cell lysate expressing glucosidases (from Example 8 WT glucosidase and engineered glucosidase polypeptides G1 to G5) and rhamnosidases (from Example 9 WT rhamnosidase and engineered rhamnosidase polypeptides R1 to R5) were dissolved in 200 mM sodium acetate aqueous solution at pH 5.8 to prepare the enzyme solutions at 4 fold the final reaction concentration as shown in Tables 19 and 20.
Each glucosidase solution was combined with an equal volume of 200 mM sodium acetate aqueous solution at pH 5.8 and separately with an equal volume of 200 mM sodium acetate aqueous solution at pH 5.8 containing 2 mg/ml rhamnosidase R5. This is a sufficient loading of rhamnosidase to effect complete hydrolysis of the relevant rhamnose moiety within 4 hours.
CBE was adjusted to pH of 6.0 to 6.2 with 2M sodium hydroxide and an equal volume added to the enzyme solution to prepare the reaction mix (i.e. 50% CBE concentration in reaction mix) and the concentration of glucosidase and/or rhamnosidase is shown in Tables 19 and 20. The reaction mix was heated to 35 degC for the time indicated in Tables 19 and 20, after which the reaction was quenched by addition of an equal volume of MeCN containing 2% acetic acid and shaken at room temperature for 10 mins prior to centrifugation (10 min, 4 degC) to remove particulates. Samples were analysed by UV HPLC using method of Experiment 4-4.
The change in composition of the Left, Middle and Right peaks is shown in Tables 19 and 20. The composition changes by the action of the enzymes depending on the presence or absence of the partner enzyme. The extent of reaction is proportional to the enzyme concentration and the reaction time under these conditions. The tables show data for enzyme concentrations and the reaction times providing for equivalent extents of reaction. The improvement resulting from the mutations introduced for each variant is equal to the fold change in enzyme concentration×time (i.e. fold improvement=(enzyme concentration×time) for preceding variant÷(enzyme concentration×time) for later variant). A cumulative fold improvement over the original enzyme variant is calculated by the product of the individual fold improvements.

[2] = Example 8: screening of glucosidase variants for deglycosylation of saponins in crude bark extract (FIOP); assay type: biochemical, Quillaja saponaria; conditions: for Cumulative FIOP (cf WT): estimate; for FIOP: fold improvement over parent
Experimental: Libraries of genetic variants encoding mutations in the wild type Modestobacter marinus glucosidase (SEQ ID No. 262) were prepared using molecular biology techniques, enzymes were prepared linked to an N-terminally located His-tag. Single monoclonal colonies were grown in 400 ul of expression medium and protein expressed. Cell pellets were lysed in 200 ul of the relevant buffer (Table 16)
Lysate was diluted appropriately in the relevant buffer to allow a lysate loading of the indicated % loading (1% loading corresponds to use of 2 ul original lysate in a 200 ul reaction). In some experiments a rhamnosidase was also present during the screening reaction (and also in controls, negating any impact on results).
Crude bark extract (CBE) obtained by aqueous extraction of Quillaja saponaria and containing at least 2.80 mg/ml QS-21 (by HPLC-UV). The pH of CBE was adjusted to pH 6 by dropwise addition of 2M NaOH with stirring. The relevant concentration of the relevant glucosidase was added. The appropriate relative volume of pH 6 CBE (160 ul (for 80%) or 150 ul (for 75%)) was added to each well of the reaction plate. The reaction plate was sealed and incubated at the relevant temperature with shaking overnight for between 18 and 22 hours.
The reaction plate was quenched by adding 200 uL of MeCN (2% AcOH, 1 mg/mL hexanophenone) to each well of the plates. The quenched reaction plate was re-sealed and incubated at 20 deg C. with shaking for 10 min. The reaction plate was then centrifuged (10 min, 4 degC).
200 uL was transferred from each well of the quenched plate to the corresponding wells of a fresh 96 well plate and sealed. The plate was analysed by UV HPLC with the method below:
A negative control (a lysate not expressing test enzymes) and a positive control (expressing the parent comparator—wild type or previous variant as appropriate). Fold improvement over parent (FIOP) for the glucosidase (shorter method) is calculated as follows:
% right peak=100*right peak area/(right peak area+left peak area)
Average % right peak area is calculated for negative controls (per plate) and subtracted from all wells to give the increase in % right peak for each well above average negative control Average increase in % right peak is calculated for positive controls per plate
FIOP=observed increase in % right peak divided by average positive control increase

[3] = glucosidase 0.1 mg/ml + rhamnosidase R5 0.5 mg/ml, 4 h
[4] = glucosidase 0.1 mg/ml, no rhamnosidase, 4 h
[5] = screen temp 35, pH 6, lysate loading 0.14%, CBE loading 75%, 100 mM Sodium acetate, Rham Present
[6] = glucosidase 1.56 mg/ml + rhamnosidase R5 0.5 mg/ml, 7 h
[7] = glucosidase 1.56 mg/ml, no rhamnosidase, 7 h
[8] = screen temp 20, pH 6, lysate loading 10%, CBE loading 80%, 100 mM Potassium phosphate, Rham None

Cumulative Fold improvement in primary enzyme loading × time [1, 3]: 834
Fold improvement in primary enzyme loading × time [1, 3]: 6.5
Cumulative Fold improvement in primary enzyme loading × time [1, 4]: 834
Fold improvement in primary enzyme loading × time [1, 4]: 6.5
B1: Variant G5: engineered glucosidase polypeptide, variant of Modestobacter marinus glucosidase SEQ ID No. 262 (protein)
chain: MNPASSTRTDTMTDTTARTDSRLTDALAALSLEQKVQLLTGRDYWNTWPIEEIGLRRILVSDGPSGVRGEVWDERDPSLNLPSATALASAWDPDIARRYGAAAAVEARRKGVDVVLGPTINLHRSPLGGRHFEAFSEDPVLTAELAAAYVTGVQDNGVGATPKHYVANDFETDRFTVDVRADERTLRELYLLAFEKAVTEARAWLVMSAYNGINGATATENDLLETPLNSEWGFDGVVVSDWTAVRSLESARSSQDLVMPGPLGPWGDALVEAVRTGAIDESVVDRKVLRILTLAQRVGALEGSPAIDPVWVEDGVALAREAAVEGTVLLENRDELPWDATSLRKVAVIGNNAAWAMTQGGGSANVCPEYTVSPLDGVRAALPDAEVSYSLGAVVRDGLVELPLAELTNPVTGGPGLRARFLTADGAELFGEDRRKSVLVYQGGDAPIAAAATYELTARWTPTESQTVRLGFACFGAAQLYVDGELLVESDLQPSGTDLGAAFMNPLTASAEVELVAGKPVDVRLVHDLSAKEGFAAHALILQLGTEPAEVDEDALIAEAAEAAEAADVVLVVVGTNSIVESEGYDRESLSLPGRQDDLVRAVVAANPRTVVLVNAGAPVLLPWRDDVAALLLGWFGGQEFGNAVADVLLGVAEPGGRLPTTWPAAEADVPVLSCTPVDGVVEYTEGIHIGYRAWLRSGATPAYWFGSGQGYTCVELTGVEAPSRARPGEIVTVSVEVANRGERDGKQVVQVYAEKPDSTVDRPVRWLVGSAPVRVPAGQTAQVEVAVPTRYLAHWAGGWQYEPGVYRLRVGTTAVELPLETTLEVSA
modifications: Seq ID No. 262 with mutations F44Y, V263L, R357M, T365N, F442Q, L474C, I475F, F541I, A355W, L367C, Q396R
time to complete hydrolysis of the relevant glucose moiety ([1]; 2 mg/ml glucosidase G5 solution (before mixing with rhamnosidase solution and CBE)): ≤ 4 h
cumulative fold improvement over WT glucosidase ([1]; from enzyme concentration x time for equivalent extent of reaction): approximately 800 fold
% change in Left Peak [1, 3]: −34%
% change in Middle Peak [1, 3]: −83%
% change in Right Peak [1, 3]: 280%
% Right Peak [1, 3]: 73%
% Left Peak [1, 3]: 20%
% Middle Peak [1, 3]: 7%
% change in Left Peak [1, 4]: −11%
% change in Middle Peak [1, 4]: −56%
% change in Right Peak [1, 4]: 208%
% Right Peak [1, 4]: 54%
% Left Peak [1, 4]: 27%
% Middle Peak [1, 4]: 19%
Cumulative FIOP (cf WT) [2, 5]: 900
FIOP [2, 5]: 3

Cumulative Fold improvement in primary enzyme loading × time [1, 6]: 32
Fold improvement in primary enzyme loading × time [1, 6]: 4.0
Cumulative Fold improvement in primary enzyme loading × time [1, 7]: 32
Fold improvement in primary enzyme loading × time [1, 7]: 4.0
B2: Variant G2: engineered glucosidase polypeptide, variant of Modestobacter marinus glucosidase SEQ ID No. 262 (protein)
chain: MNPASSTRTDTMTDTTARTDSRLTDALAALSLEQKVQLLTGRDFWNTWPIEEIGLRRILVSDGPSGVRGEVWDERDPSLNLPSATALASAWDPDIARRYGAAAAVEARRKGVDVVLGPTINLHRSPLGGRHFEAFSEDPVLTAELAAAYVTGVQDNGVGATPKHYVANDFETDRFTVDVRADERTLRELYLLAFEKAVTEARAWLVMSAYNGINGATATENDLLETPLNSEWGFDGVVVSDWTAVRSLESARSSQDLVMPGPVGPWGDALVEAVRTGAIDESVVDRKVLRILTLAQRVGALEGSPAIDPVWVEDGVALAREAAVEGTVLLENRDELPWDATSLRKVAVIGNNAAAAMTQGGGSANVLPEYTVSPLDGVRAALPDAEVSYSLGAVVQDGLVELPLAELTNPVTGGPGLRARFLTADGAELFGEDRRKSVLVYFGGDAPIAAAATYELTARWTPTESQTVRLGFFCFGAAQLYVDGELLVESDLQPSGTDLGAAFMNPLTASAEVELVAGKPVDVRLVHDLSAKEGFAAHALFLQLGTEPAEVDEDALIAEAAEAAEAADVVLVVVGTNSIVESEGYDRESLSLPGRQDDLVRAVVAANPRTVVLVNAGAPVLLPWRDDVAALLLGWFGGQEFGNAVADVLLGVAEPGGRLPTTWPAAEADVPVLSCTPVDGVVEYTEGIHIGYRAWLRSGATPAYWFGSGQGYTCVELTGVEAPSRARPGEIVTVSVEVANRGERDGKQVVQVYAEKPDSTVDRPVRWLVGSAPVRVPAGQTAQVEVAVPTRYLAHWAGGWQYEPGVYRLRVGTTAVELPLETTLEVSA
modifications: Seq ID No. 262 with mutations T365N, R357M, A473F, L474C, I475F
% change in Left Peak [1, 6]: −26%
% change in Middle Peak [1, 6]: −82%
% change in Right Peak [1, 6]: 269%
% Right Peak [1, 6]: 70%
% Left Peak [1, 6]: 22%
% Middle Peak [1, 6]: 8%
% change in Left Peak [1, 7]: −15%
% change in Middle Peak [1, 7]: −57%
% change in Right Peak [1, 7]: 213%
% Right Peak [1, 7]: 55%
% Left Peak [1, 7]: 26%
% Middle Peak [1, 7]: 19%
Cumulative FIOP (cf WT) [2, 8]: 50
FIOP [2, 8]: 10
